In paper PMC4606517:

Legend:
[1] = target: hAgo2 (single-molecule) (Homo sapiens) (UniProt Q9UKV8); test: single-molecule FRET; details: 5'-phosphate on guide, C6-amino-U in guide (nt 9) and in target (opposite guide nt 17), Filter binding: 30 mM Tris pH 8.0, 0.1 M K acetate, 2 mM Mg acetate, 0.5 mM TCEP, 0.005% NP-40, 0.01 mg/ml yeast tRNA, room temp, 45 min, 0.1 nM target …
[2] = target: Ago2 wild type (Homo sapiens) (UniProt Q9UKV8); test: filter binding; details: 5'-phosphate on guide; target nt 9 (N) = inosine; Filter binding: 30 mM Tris pH 8.0, 0.1 M K acetate, 2 mM Mg acetate, 0.5 mM TCEP, 0.005% NP-40, 0.01 mg/ml yeast tRNA, room temp, 45 min, 0.1 nM target …
Sequence of Ago2 wild type (Homo sapiens) (Q9UKV8 whole entry): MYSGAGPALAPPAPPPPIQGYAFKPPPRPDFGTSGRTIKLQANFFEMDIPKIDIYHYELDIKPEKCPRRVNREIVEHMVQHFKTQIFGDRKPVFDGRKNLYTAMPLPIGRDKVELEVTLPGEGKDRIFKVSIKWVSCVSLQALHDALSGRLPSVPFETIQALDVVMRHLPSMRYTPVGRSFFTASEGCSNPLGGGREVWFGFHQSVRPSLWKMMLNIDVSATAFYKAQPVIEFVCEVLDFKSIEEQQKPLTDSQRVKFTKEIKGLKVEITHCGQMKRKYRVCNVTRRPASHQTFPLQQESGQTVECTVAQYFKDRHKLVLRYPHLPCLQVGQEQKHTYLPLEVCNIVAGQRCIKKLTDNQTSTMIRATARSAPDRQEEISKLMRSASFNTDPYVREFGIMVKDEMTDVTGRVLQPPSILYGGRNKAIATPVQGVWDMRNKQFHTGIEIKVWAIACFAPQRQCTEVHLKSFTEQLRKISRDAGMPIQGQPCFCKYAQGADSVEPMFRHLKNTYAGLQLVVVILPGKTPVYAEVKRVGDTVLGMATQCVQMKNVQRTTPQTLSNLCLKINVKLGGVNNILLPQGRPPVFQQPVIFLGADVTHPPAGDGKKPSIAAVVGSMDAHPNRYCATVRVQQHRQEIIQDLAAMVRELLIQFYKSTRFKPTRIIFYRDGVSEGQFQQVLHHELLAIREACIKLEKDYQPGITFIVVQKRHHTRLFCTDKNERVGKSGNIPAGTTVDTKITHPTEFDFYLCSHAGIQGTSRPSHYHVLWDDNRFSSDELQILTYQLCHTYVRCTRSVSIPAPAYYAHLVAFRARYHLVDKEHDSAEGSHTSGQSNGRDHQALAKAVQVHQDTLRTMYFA

Sequence of hAgo2 (single-molecule) (Homo sapiens) (Q9UKV8 whole entry): as above

Sequence: UGAGGUAUUUUUUUUUUUUUUU / UUUUUUUUUUUUUUUUUUUUUUUUUUUUUUUACUACCUCAUUUUUUUUUUUUUUUUUUUUUUUUUUUUU [smFRET guide + t1DAP target]
- binding signal ([1]; long dwell time (55.4%), short 1.97 ± 0.24 s (44.6%), target nt 40 = 2,6-diaminopurine (written A)): 12.9 s

Sequence: UUCACAUUGCCCAAGUCUCUU / CAAUGUGANAA [guide + t1I target]
- Kd [2]: 1.7 nM

Sequence: UGAGGUAUUUUUUUUUUUUUUU / UUUUUUUUUUUUUUUUUUUUUUUUUUUUUUUACUACCUCAUUUUUUUUUUUUUUUUUUUUUUUUUUUUU [smFRET guide + t1A target]
- binding signal ([1]; long dwell time (50.2%), short 1.61 ± 0.29 s (49.8%)): 8.69 s

Sequence: UGAGGUAUUUUUUUUUUUUUUU / UUUUUUUUUUUUUUUUUUUUUUUUUUUUUUUACUACCUCUUUUUUUUUUUUUUUUUUUUUUUUUUUUUU [smFRET guide + t1U target]
- binding signal ([1]; dwell time, single exponential): 1.64 s
